# Laboratory results: the supplement of paper PMC12855868
# B1: library; numbered along this chain (parent)
# chain: MAAAGGARLLRAASAVLGGPAGRWLHHAGSRAGSSGLLRNRGPGGSAEASRSLSVSARARSSSEDKITVHFINRDGETLTTKGKVGDSLLDVVVENNLDIDGFGACEGTLACSTCHLIFEDHIYEKLDAITDEENDMLDLAYGLTDRSRLGCQICLTKSMDNMTVRVPETVADARQSIDVGKTS
# Variants of: B1
# Assay: scaled log2 fold change in cell abundance, elesclomol vs control (0 = silent mean, 1 = nonsense mean) (scaled log2 ratio); higher = higher viability under elesclomol (loss of FDX1 cuproptosis function)
# Conditions: glucose 10 mM
# [1] = with ABC1 FDX1 KO, elesclomol 5 nM, 14 days
# [2] = with HEK293T FDX1 KO, elesclomol 40 nM, 11 days
# 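Further: variant abundance is its share of total variant reads in each endpoint sample, from next-generation sequencing of the integrated ORF PCR-amplified out of genomic DNA.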
Variant,scaled log2 fold change [1],scaled log2 fold change [2]
MAAAGGARLLRAASAVLGGPAGRWLHHAGSRAGSSGLLRNRGPGGSAEASRSLSVSARARSSSEDKITVHFINRDGETLTTKGKAGDSLLDVVVENNLDIDGFGACEGTLACSTCHLIFEDHIYEKLDAITDEENDMLDLAYGLTDRSRLGCQICLTKSMDNMTVRVPETVADARQSIDVGKTS [V85A],0.0788,-0.325
MAAAGGARLLRAASAVLGGPAGRWLHHAGSRAGSSGLLRNRGPGGSAEASRSLSVSARARSSSEDKITVHFINRDGETLTTKGKVGDSLLDVVVENNLDIDGFGACEGTLACSTCHLIFEDHIYEKLDAITDEENDMLDLAYGLTDMSRLGCQICLTKSMDNMTVRVPETVADARQSIDVGKTS [R147M],0.167,-0.232
MAAAGGARLLRAASAVLGGPAGRWLHHAGSRAGSSGLLRNRGPGGSAEASRSLSVSARARSSSEDKITVHFINRDGETLTTKGKVGDSLLDVVVENNLDIDGFGACEGTLAASTCHLIFEDHIYEKLDAITDEENDMLDLAYGLTDRSRLGCQICLTKSMDNMTVRVPETVADARQSIDVGKTS [C112A],1.16,1.03
MAAAGGARLLRAASAVLGGPAGRWLHHAGSRAGSSTLLRNRGPGGSAEASRSLSVSARARSSSEDKITVHFINRDGETLTTKGKVGDSLLDVVVENNLDIDGFGACEGTLACSTCHLIFEDHIYEKLDAITDEENDMLDLAYGLTDRSRLGCQICLTKSMDNMTVRVPETVADARQSIDVGKTS [G36T],0.266,0.704
MAAAGGARLLRAASAVLGGPAGRWLHHAGSRAGSSGLLRNRGPGGSAEASRSLSVSARARSSSEDKITVHFINRDGETLTTKGKVGDSLLDVVVENNLDIDGFGACEGTLACSTCHLIFKDHIYEKLDAITDEENDMLDLAYGLTDRSRLGCQICLTKSMDNMTVRVPETVADARQSIDVGKTS [E120K],0.0347,0.542
MAAAGGARLLRAASAVLGGPAGRWLHHAGSRAGSSGLLRNRGPGGSAEASRSLSVSARARSSSEDKITVHFINRDGETLTTKGKVGDSLLDVVVENNLDIDGFGACEGTLACSTCHLIFSDHIYEKLDAITDEENDMLDLAYGLTDRSRLGCQICLTKSMDNMTVRVPETVADARQSIDVGKTS [E120S],0.0771,-1.62
MAAAGGARLLRAASAVLGGPAGRWLHHAGSRAGSSGLLRNRGPGGSAEASRSLSVSARARSSSEDKITVHFINRDGETLTTKGKVGDSLLDVVVENNLDIDGFGACEGTLACSTCHLIFEDHIYEKLDAITDEENDYLDLAYGLTDRSRLGCQICLTKSMDNMTVRVPETVADARQSIDVGKTS [M137Y],-0.108,1.02
MAAAGGARLLRAASAVLGGPAGRWLHHAGSRAGSSGLLRNRGPGGSAEASRSLSVSARARSSSEDKITVHFINRDGEHLTTKGKVGDSLLDVVVENNLDIDGFGACEGTLACSTCHLIFEDHIYEKLDAITDEENDMLDLAYGLTDRSRLGCQICLTKSMDNMTVRVPETVADARQSIDVGKTS [T78H],-0.378,1.01
MAAAGGARLLRAASAVLGLPAGRWLHHAGSRAGSSGLLRNRGPGGSAEASRSLSVSARARSSSEDKITVHFINRDGETLTTKGKVGDSLLDVVVENNLDIDGFGACEGTLACSTCHLIFEDHIYEKLDAITDEENDMLDLAYGLTDRSRLGCQICLTKSMDNMTVRVPETVADARQSIDVGKTS [G19L],-0.367,0.0638
MAAAGGARLLRAASAVLGGPAGRWLHHFGSRAGSSGLLRNRGPGGSAEASRSLSVSARARSSSEDKITVHFINRDGETLTTKGKVGDSLLDVVVENNLDIDGFGACEGTLACSTCHLIFEDHIYEKLDAITDEENDMLDLAYGLTDRSRLGCQICLTKSMDNMTVRVPETVADARQSIDVGKTS [A28F],0.368,0.0914
MAAAGGARLLRAASAVLGGPAGRWLHHAGSRAGASGLLRNRGPGGSAEASRSLSVSARARSSSEDKITVHFINRDGETLTTKGKVGDSLLDVVVENNLDIDGFGACEGTLACSTCHLIFEDHIYEKLDAITDEENDMLDLAYGLTDRSRLGCQICLTKSMDNMTVRVPETVADARQSIDVGKTS [S34A],-0.221,-0.449
MAAAGGARLLRAASAVLGGPAGRWLHHAGSRAGSSGLLRNRGPGGSAEASRSLSVSARARSSSEDKITVHFINRDGETLTTKGKVGDSLLDVVVENNLDIDGFGACEGTLACSTCHLIFEDHIYEKLDAITDEENDMLDLAYGLTDRSRLGCQICLTKSMDNMTVREPETVADARQSIDVGKTS [V167E],0.136,0.156
MAAAGGARLLRAASAVLGGPAGRWLHHAGSRAGSSGLLRNRGPGGSAEASRSLSVSARARSSSEDKITVHEINRDGETLTTKGKVGDSLLDVVVENNLDIDGFGACEGTLACSTCHLIFEDHIYEKLDAITDEENDMLDLAYGLTDRSRLGCQICLTKSMDNMTVRVPETVADARQSIDVGKTS [F71E],1.02,1.5
MAAAGGARLLRAASAVLGGPAGRWLHHAGSRAGSSGLLRNRGPGGSAEASRSLSVSARARSSSEDKITVHFINRDGETLTTKGKVGDSLADVVVENNLDIDGFGACEGTLACSTCHLIFEDHIYEKLDAITDEENDMLDLAYGLTDRSRLGCQICLTKSMDNMTVRVPETVADARQSIDVGKTS [L90A],-0.423,
MAAAGGARLLRAASAVLGGPAGRWLHHAGSRAGSSGLLRNRGPGGSAEASRSLSVSARARSSSEDKETVHFINRDGETLTTKGKVGDSLLDVVVENNLDIDGFGACEGTLACSTCHLIFEDHIYEKLDAITDEENDMLDLAYGLTDRSRLGCQICLTKSMDNMTVRVPETVADARQSIDVGKTS [I67E],0.963,0.881
MAAAGGARLLRAASAVLGGIAGRWLHHAGSRAGSSGLLRNRGPGGSAEASRSLSVSARARSSSEDKITVHFINRDGETLTTKGKVGDSLLDVVVENNLDIDGFGACEGTLACSTCHLIFEDHIYEKLDAITDEENDMLDLAYGLTDRSRLGCQICLTKSMDNMTVRVPETVADARQSIDVGKTS [P20I],0.419,0.171
MAAAGGARLLRAASAVLGGPAGRWLHHAGSRAGSSGLLRNRGPGGSAEASRSLSVSARARSSSEDKITVHFINRDGETLTTKGKVGDSLLDVVVENNLDIDGFGACEGTLACSTCHLIFEDHIYEKLDAITDEENDMIDLAYGLTDRSRLGCQICLTKSMDNMTVRVPETVADARQSIDVGKTS [L138I],0.0896,0.0458
